# From PMC9108607, “The intrinsically disordered CARDs‐Helicase linker in RIG‐I is a molecular gate for RNA proofreading”
# T1: Δ190-200 RIG-I (human, UniProt O95786 1-925, del190-200)
# T1 sequence: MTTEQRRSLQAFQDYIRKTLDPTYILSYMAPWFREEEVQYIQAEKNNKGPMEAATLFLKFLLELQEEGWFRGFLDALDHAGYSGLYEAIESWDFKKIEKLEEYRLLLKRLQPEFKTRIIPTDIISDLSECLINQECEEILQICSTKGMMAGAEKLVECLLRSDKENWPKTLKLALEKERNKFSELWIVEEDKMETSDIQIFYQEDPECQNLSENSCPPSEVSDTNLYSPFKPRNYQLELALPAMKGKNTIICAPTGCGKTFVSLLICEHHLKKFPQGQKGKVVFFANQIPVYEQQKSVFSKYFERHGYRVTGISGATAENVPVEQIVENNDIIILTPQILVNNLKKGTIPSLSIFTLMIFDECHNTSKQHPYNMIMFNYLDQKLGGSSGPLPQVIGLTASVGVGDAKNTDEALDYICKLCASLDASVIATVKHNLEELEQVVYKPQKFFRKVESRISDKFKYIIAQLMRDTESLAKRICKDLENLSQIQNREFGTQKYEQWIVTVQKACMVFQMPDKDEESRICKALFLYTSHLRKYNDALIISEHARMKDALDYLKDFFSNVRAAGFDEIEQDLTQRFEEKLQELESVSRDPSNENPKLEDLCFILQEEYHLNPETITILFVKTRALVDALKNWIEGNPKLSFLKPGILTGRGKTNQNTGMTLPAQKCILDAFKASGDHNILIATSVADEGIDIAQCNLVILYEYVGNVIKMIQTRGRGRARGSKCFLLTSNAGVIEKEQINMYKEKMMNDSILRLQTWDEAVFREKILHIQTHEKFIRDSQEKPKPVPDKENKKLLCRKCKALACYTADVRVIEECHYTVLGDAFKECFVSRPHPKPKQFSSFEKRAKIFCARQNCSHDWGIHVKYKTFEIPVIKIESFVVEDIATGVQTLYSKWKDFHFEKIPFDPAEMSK
# T2: WT RIG-I (human, UniProt O95786 1-925)
# T2 sequence: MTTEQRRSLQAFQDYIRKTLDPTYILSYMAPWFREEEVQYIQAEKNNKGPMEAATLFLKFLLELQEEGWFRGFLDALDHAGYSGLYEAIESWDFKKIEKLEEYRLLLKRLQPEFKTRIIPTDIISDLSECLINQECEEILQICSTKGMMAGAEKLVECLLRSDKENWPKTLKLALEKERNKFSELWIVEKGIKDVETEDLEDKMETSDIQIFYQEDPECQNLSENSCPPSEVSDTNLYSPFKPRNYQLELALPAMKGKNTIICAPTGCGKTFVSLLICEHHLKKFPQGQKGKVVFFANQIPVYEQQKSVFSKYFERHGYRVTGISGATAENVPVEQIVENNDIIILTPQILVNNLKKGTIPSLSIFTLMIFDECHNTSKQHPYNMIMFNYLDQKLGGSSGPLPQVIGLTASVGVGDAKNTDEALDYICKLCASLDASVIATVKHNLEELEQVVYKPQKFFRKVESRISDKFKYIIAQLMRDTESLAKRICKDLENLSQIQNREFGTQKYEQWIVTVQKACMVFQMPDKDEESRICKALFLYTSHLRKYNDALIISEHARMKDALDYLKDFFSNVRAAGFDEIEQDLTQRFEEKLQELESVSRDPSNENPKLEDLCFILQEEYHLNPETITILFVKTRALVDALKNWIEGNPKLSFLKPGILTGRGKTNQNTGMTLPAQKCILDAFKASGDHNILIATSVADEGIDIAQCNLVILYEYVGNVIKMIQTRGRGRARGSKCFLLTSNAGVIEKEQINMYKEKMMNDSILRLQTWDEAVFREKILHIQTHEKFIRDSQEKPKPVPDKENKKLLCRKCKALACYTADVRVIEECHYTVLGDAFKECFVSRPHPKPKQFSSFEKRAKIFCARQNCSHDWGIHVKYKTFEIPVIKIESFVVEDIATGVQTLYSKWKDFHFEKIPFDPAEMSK
# B1: 5'ppp ds27 (dsRNA)
# RNA 1: AUACGUCCUGAUAGUUAGUAUCCAUCG
# RNA 2: CGAUGGAUACUAACUAUCAGGACGUAU
# modifications: 5'ppp on strand 1
# Tests used:
# Δ190-200 RIG-I = target: T1, Δ190-200 RIG-I; assay: EMSA; streptavidin, ±2 mM ATP; oligomerizes with ATP; Buffer A: 50 mM MOPS pH 7.4, 5 mM DTT, 5 mM MgCl2, 0.01% Tween20, 25°C (fluorimetry: 15 nM RNA; ATPase: 15 nM protein, 1 mM ATP); EMSA in Buffer A at 4°C; conditions: protein: recombinant; tags: 6xHis-SUMO removed by Ulp1; label: 3' DY547 and 5' biotin on strand 2; blunt
# WT RIG-I = target: T2, WT RIG-I; assay: RNA-dependent ATPase titration (KD,app); 1 mM ATP; Buffer A: 50 mM MOPS pH 7.4, 5 mM DTT, 5 mM MgCl2, 0.01% Tween20, 25°C (fluorimetry: 15 nM RNA; ATPase: 15 nM protein, 1 mM ATP); EMSA in Buffer A at 4°C; conditions: protein: recombinant; tags: 6xHis-SUMO removed by Ulp1; label: 3' DY547 and 5' biotin on strand 2; blunt
binder,measurement,setting,value
B1,binding result,Δ190-200 RIG-I,binds
same,apparent KD relative to Hel-CTD,WT RIG-I,~5 fold weaker than Hel-CTD
